Reference: paper PMC8605562, “MSMEG_3955 from Mycobacterium smegmatis is a FMN bounded homotrimeric NAD(P)H:Flavin mononucleotide (FMN) oxidoreductase” (BMC Microbiology, 2021)

Biological target: the molecule itself
Experiment: native gel or EMSA; NATIVE-PAGE (12% in the methods, 10% in the legend of Fig. 3a) of purified protein loaded without any treatment, 10 ug (Fig. 3a) or 20 ug each of wild type and mutant (Fig. 2a); band at ~115 kDa against ~36 kDa on SDS-PAGE

B1: MSMEG_3955 from Mycobacterium smegmatis, recombinant wild-type protein (enzyme, Mycobacterium smegmatis mc2 155, UniProt A0QZA6 1-334, looked up)
chain: MNTHFPDTETIHAALALAMRAPSIHNSQPWQWRVGERSVHLYADLDRHLTSTDPDSRDLLLSCGAALHHCVIAFAALGWYASVHRLPNPAEPEHLASIELRRQTPTDLDIALAAAIPRRRTDRRHYSAWPVSHSDIAMMGARAARAGVMLRRVESLSRLQDIVAESIARHAADDGYLRELTAWSGKYASTAGVPARSAPKPEPGAPLSSRMFAGAALKQPDTGAGADEGAVVLALGTADDTRMSRLRAGEATSLILLTATAMGLATCPVTEPLEISETRDAVQAEVFGASAFPQMMLRVGWAPVNADPLPPTPRRHVADAVRWLDGSPFEPESE
notes: MSMEG_3955, Mycobacterium smegmatis mc2 155, NADPH-dependent FMN oxidoreductase of the Acg family; gene amplified from genomic DNA with primers from the ATG to the stop codon (~1005 bp amplicon, ~36 kDa protein); tag removal is not described; also called protein MSMEG_3955; homologue of Rv3131; source: E. coli BL21 (DE3), pET-28a, purified (Ni-NTA)
  stoichiometry N: 3
